Measured values: publication PMC4056191 (Nature, 2012)
Positions count from the first letter of the chain named. In names and notes the source's numbering stands.

B1: GST–DAXX tower (183–251) E225A (domain or fragment)
chain: GSRRQIQRLEQLLALYVAEIRRLQEKELDLSELDDPDSAYLQAARLKRKLIRLFGRLCELKDCSSLTGR
B2: GST–DAXX tower (183–251) Q206A (domain or fragment)
chain: B1 chain with Q24A, A43E
B3: GST–DAXX tower (183–251) K229A (domain or fragment)
chain: B1 chain with A43E, K47A

Target: wild-type histone H3.3–H4 tetramers (human, UniProt P84243 1-136; P62805 1-103)
Experiment: pull-down

Row | Binder | binding result
1 | B1 | binds
2 | B2 | binds
3 | B3 | binds
